Laboratory results reported in paper PMC3300016.

What was measured:
[1] = biological target: BPV-1 E1 helicase domain (E1HD), residues 299-605 (bovine papillomavirus (BPV-1)) (UniProt P03116); assay: SEC
[2] = biological target: T1, E1HD (E1 helicase domain) (bovine papillomavirus BPV-1, UniProt P03116 299-605); assay: EMSA
[3] = biological target: T1, E1HD (E1 helicase domain); assay: gel filtration

T1 sequence (P03116 299-605): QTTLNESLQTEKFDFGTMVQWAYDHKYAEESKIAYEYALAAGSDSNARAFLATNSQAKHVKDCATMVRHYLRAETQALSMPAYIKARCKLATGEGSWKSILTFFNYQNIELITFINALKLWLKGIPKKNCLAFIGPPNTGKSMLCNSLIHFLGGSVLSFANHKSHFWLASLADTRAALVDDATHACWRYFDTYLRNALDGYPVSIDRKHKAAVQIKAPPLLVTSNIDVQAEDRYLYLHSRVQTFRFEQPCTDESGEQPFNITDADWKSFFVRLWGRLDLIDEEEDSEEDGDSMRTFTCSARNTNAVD

For “BPV-1 E1 helicase domain (E1HD), residues 299-605 (from UniProt P03116 299-605) (domain or fragment)”, the stoichiometry N [1] was 6.

B1: T30 (ssDNA)
DNA: TTTTTTTTTTTTTTTTTTTTTTTTTTTTTT
B1: binds [2].

B2: T18 (ssDNA)
DNA: TTTTTTTTTTTTTTTTTT
B2: binds [3].
